Test results published in US20210388087A1 (Chugai, published 2021).

T1: Human CD3eg linker (human)
T1 construct: single-chain construct; also called recombinant human CD3
T1 chain: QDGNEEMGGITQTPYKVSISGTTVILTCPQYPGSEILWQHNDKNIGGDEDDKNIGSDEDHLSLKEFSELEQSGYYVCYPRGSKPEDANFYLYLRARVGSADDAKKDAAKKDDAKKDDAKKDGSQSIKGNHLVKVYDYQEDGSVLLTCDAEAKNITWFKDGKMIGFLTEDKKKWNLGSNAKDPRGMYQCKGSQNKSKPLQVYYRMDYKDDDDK


Biological target: T1, Human CD3eg linker
Assay: SPR, vs unmutated H183/L072

Binder | fold change of affinity [fold]
dBBDu183H A98R/dBBDu072L (antibody, name in Kabat numbering, V domains shown) VH: QVQLVESGGGLVQPGRSLRLSCAASGFTFSNAWMHWVRQAPGKGLEWVAQIKDKGNAYAAYYAPSVKGRFTISRDDSKNSIYLQMNSLKTEDTAVYYCHYVHYRSASTVLPAFGVDAWGQGTTVTVSS VL: DIVMTQSPLSLPVTPGEPASISCQASQELVHMNRNTYLHWYQQKPGQAPRLLIYKVSNRFPGVPDRFSGSGSGTDFTLKISRVEAEDVGVYYCAQGTSVPFTFGQGTKLEIK | 2.7
dBBDu183H A98Y/dBBDu072L (antibody, name in Kabat numbering, V domains shown) VH: QVQLVESGGGLVQPGRSLRLSCAASGFTFSNAWMHWVRQAPGKGLEWVAQIKDKGNAYAAYYAPSVKGRFTISRDDSKNSIYLQMNSLKTEDTAVYYCHYVHYYSASTVLPAFGVDAWGQGTTVTVSS VL: DIVMTQSPLSLPVTPGEPASISCQASQELVHMNRNTYLHWYQQKPGQAPRLLIYKVSNRFPGVPDRFSGSGSGTDFTLKISRVEAEDVGVYYCAQGTSVPFTFGQGTKLEIK | 25.1
dBBDu183H A98W/dBBDu072L (antibody, name in Kabat numbering, V domains shown) VH: QVQLVESGGGLVQPGRSLRLSCAASGFTFSNAWMHWVRQAPGKGLEWVAQIKDKGNAYAAYYAPSVKGRFTISRDDSKNSIYLQMNSLKTEDTAVYYCHYVHYWSASTVLPAFGVDAWGQGTTVTVSS VL: DIVMTQSPLSLPVTPGEPASISCQASQELVHMNRNTYLHWYQQKPGQAPRLLIYKVSNRFPGVPDRFSGSGSGTDFTLKISRVEAEDVGVYYCAQGTSVPFTFGQGTKLEIK | 7
dBBDu183H A98V/dBBDu072L (antibody, name in Kabat numbering, V domains shown) VH: QVQLVESGGGLVQPGRSLRLSCAASGFTFSNAWMHWVRQAPGKGLEWVAQIKDKGNAYAAYYAPSVKGRFTISRDDSKNSIYLQMNSLKTEDTAVYYCHYVHYVSASTVLPAFGVDAWGQGTTVTVSS VL: DIVMTQSPLSLPVTPGEPASISCQASQELVHMNRNTYLHWYQQKPGQAPRLLIYKVSNRFPGVPDRFSGSGSGTDFTLKISRVEAEDVGVYYCAQGTSVPFTFGQGTKLEIK | 4.7
dBBDu183H A100D/dBBDu072L (antibody, name in Kabat numbering, V domains shown) VH: QVQLVESGGGLVQPGRSLRLSCAASGFTFSNAWMHWVRQAPGKGLEWVAQIKDKGNAYAAYYAPSVKGRFTISRDDSKNSIYLQMNSLKTEDTAVYYCHYVHYASDSTVLPAFGVDAWGQGTTVTVSS VL: DIVMTQSPLSLPVTPGEPASISCQASQELVHMNRNTYLHWYQQKPGQAPRLLIYKVSNRFPGVPDRFSGSGSGTDFTLKISRVEAEDVGVYYCAQGTSVPFTFGQGTKLEIK | 0.5
dBBDu183H A98S/dBBDu072L (antibody, name in Kabat numbering, V domains shown) VH: QVQLVESGGGLVQPGRSLRLSCAASGFTFSNAWMHWVRQAPGKGLEWVAQIKDKGNAYAAYYAPSVKGRFTISRDDSKNSIYLQMNSLKTEDTAVYYCHYVHYSSASTVLPAFGVDAWGQGTTVTVSS VL: DIVMTQSPLSLPVTPGEPASISCQASQELVHMNRNTYLHWYQQKPGQAPRLLIYKVSNRFPGVPDRFSGSGSGTDFTLKISRVEAEDVGVYYCAQGTSVPFTFGQGTKLEIK | 1
dBBDu183H A100E/dBBDu072L (antibody, name in Kabat numbering, V domains shown) VH: QVQLVESGGGLVQPGRSLRLSCAASGFTFSNAWMHWVRQAPGKGLEWVAQIKDKGNAYAAYYAPSVKGRFTISRDDSKNSIYLQMNSLKTEDTAVYYCHYVHYASESTVLPAFGVDAWGQGTTVTVSS VL: DIVMTQSPLSLPVTPGEPASISCQASQELVHMNRNTYLHWYQQKPGQAPRLLIYKVSNRFPGVPDRFSGSGSGTDFTLKISRVEAEDVGVYYCAQGTSVPFTFGQGTKLEIK | 0.5
dBBDu183H A98T/dBBDu072L (antibody, name in Kabat numbering, V domains shown) VH: QVQLVESGGGLVQPGRSLRLSCAASGFTFSNAWMHWVRQAPGKGLEWVAQIKDKGNAYAAYYAPSVKGRFTISRDDSKNSIYLQMNSLKTEDTAVYYCHYVHYTSASTVLPAFGVDAWGQGTTVTVSS VL: DIVMTQSPLSLPVTPGEPASISCQASQELVHMNRNTYLHWYQQKPGQAPRLLIYKVSNRFPGVPDRFSGSGSGTDFTLKISRVEAEDVGVYYCAQGTSVPFTFGQGTKLEIK | 2

Second part, the binder after the results:

fold change of affinity [fold] | Binder
1.7 | dBBDu183H A100Y/dBBDu072L (antibody, name in Kabat numbering, V domains shown) VH: QVQLVESGGGLVQPGRSLRLSCAASGFTFSNAWMHWVRQAPGKGLEWVAQIKDKGNAYAAYYAPSVKGRFTISRDDSKNSIYLQMNSLKTEDTAVYYCHYVHYASYSTVLPAFGVDAWGQGTTVTVSS VL: DIVMTQSPLSLPVTPGEPASISCQASQELVHMNRNTYLHWYQQKPGQAPRLLIYKVSNRFPGVPDRFSGSGSGTDFTLKISRVEAEDVGVYYCAQGTSVPFTFGQGTKLEIK
0.8 | dBBDu183H A100N/dBBDu072L (antibody, name in Kabat numbering, V domains shown) VH: QVQLVESGGGLVQPGRSLRLSCAASGFTFSNAWMHWVRQAPGKGLEWVAQIKDKGNAYAAYYAPSVKGRFTISRDDSKNSIYLQMNSLKTEDTAVYYCHYVHYASNSTVLPAFGVDAWGQGTTVTVSS VL: DIVMTQSPLSLPVTPGEPASISCQASQELVHMNRNTYLHWYQQKPGQAPRLLIYKVSNRFPGVPDRFSGSGSGTDFTLKISRVEAEDVGVYYCAQGTSVPFTFGQGTKLEIK
1.9 | dBBDu183H A100K/dBBDu072L (antibody, name in Kabat numbering, V domains shown) VH: QVQLVESGGGLVQPGRSLRLSCAASGFTFSNAWMHWVRQAPGKGLEWVAQIKDKGNAYAAYYAPSVKGRFTISRDDSKNSIYLQMNSLKTEDTAVYYCHYVHYASKSTVLPAFGVDAWGQGTTVTVSS VL: DIVMTQSPLSLPVTPGEPASISCQASQELVHMNRNTYLHWYQQKPGQAPRLLIYKVSNRFPGVPDRFSGSGSGTDFTLKISRVEAEDVGVYYCAQGTSVPFTFGQGTKLEIK
1.1 | dBBDu183H A100S/dBBDu072L (antibody, name in Kabat numbering, V domains shown) VH: QVQLVESGGGLVQPGRSLRLSCAASGFTFSNAWMHWVRQAPGKGLEWVAQIKDKGNAYAAYYAPSVKGRFTISRDDSKNSIYLQMNSLKTEDTAVYYCHYVHYASSSTVLPAFGVDAWGQGTTVTVSS VL: DIVMTQSPLSLPVTPGEPASISCQASQELVHMNRNTYLHWYQQKPGQAPRLLIYKVSNRFPGVPDRFSGSGSGTDFTLKISRVEAEDVGVYYCAQGTSVPFTFGQGTKLEIK
1.4 | dBBDu183H A100G/dBBDu072L (antibody, name in Kabat numbering, V domains shown) VH: QVQLVESGGGLVQPGRSLRLSCAASGFTFSNAWMHWVRQAPGKGLEWVAQIKDKGNAYAAYYAPSVKGRFTISRDDSKNSIYLQMNSLKTEDTAVYYCHYVHYASGSTVLPAFGVDAWGQGTTVTVSS VL: DIVMTQSPLSLPVTPGEPASISCQASQELVHMNRNTYLHWYQQKPGQAPRLLIYKVSNRFPGVPDRFSGSGSGTDFTLKISRVEAEDVGVYYCAQGTSVPFTFGQGTKLEIK
1.2 | dBBDu183H A100H/dBBDu072L (antibody, name in Kabat numbering, V domains shown) VH: QVQLVESGGGLVQPGRSLRLSCAASGFTFSNAWMHWVRQAPGKGLEWVAQIKDKGNAYAAYYAPSVKGRFTISRDDSKNSIYLQMNSLKTEDTAVYYCHYVHYASHSTVLPAFGVDAWGQGTTVTVSS VL: DIVMTQSPLSLPVTPGEPASISCQASQELVHMNRNTYLHWYQQKPGQAPRLLIYKVSNRFPGVPDRFSGSGSGTDFTLKISRVEAEDVGVYYCAQGTSVPFTFGQGTKLEIK
1.4 | dBBDu183H A100F/dBBDu072L (antibody, name in Kabat numbering, V domains shown) VH: QVQLVESGGGLVQPGRSLRLSCAASGFTFSNAWMHWVRQAPGKGLEWVAQIKDKGNAYAAYYAPSVKGRFTISRDDSKNSIYLQMNSLKTEDTAVYYCHYVHYASFSTVLPAFGVDAWGQGTTVTVSS VL: DIVMTQSPLSLPVTPGEPASISCQASQELVHMNRNTYLHWYQQKPGQAPRLLIYKVSNRFPGVPDRFSGSGSGTDFTLKISRVEAEDVGVYYCAQGTSVPFTFGQGTKLEIK
0.8 | dBBDu183H A100Q/dBBDu072L (antibody, name in Kabat numbering, V domains shown) VH: QVQLVESGGGLVQPGRSLRLSCAASGFTFSNAWMHWVRQAPGKGLEWVAQIKDKGNAYAAYYAPSVKGRFTISRDDSKNSIYLQMNSLKTEDTAVYYCHYVHYASQSTVLPAFGVDAWGQGTTVTVSS VL: DIVMTQSPLSLPVTPGEPASISCQASQELVHMNRNTYLHWYQQKPGQAPRLLIYKVSNRFPGVPDRFSGSGSGTDFTLKISRVEAEDVGVYYCAQGTSVPFTFGQGTKLEIK
1.9 | dBBDu183H A100W/dBBDu072L (antibody, name in Kabat numbering, V domains shown) VH: QVQLVESGGGLVQPGRSLRLSCAASGFTFSNAWMHWVRQAPGKGLEWVAQIKDKGNAYAAYYAPSVKGRFTISRDDSKNSIYLQMNSLKTEDTAVYYCHYVHYASWSTVLPAFGVDAWGQGTTVTVSS VL: DIVMTQSPLSLPVTPGEPASISCQASQELVHMNRNTYLHWYQQKPGQAPRLLIYKVSNRFPGVPDRFSGSGSGTDFTLKISRVEAEDVGVYYCAQGTSVPFTFGQGTKLEIK
1.2 | dBBDu183H A100V/dBBDu072L (antibody, name in Kabat numbering, V domains shown) VH: QVQLVESGGGLVQPGRSLRLSCAASGFTFSNAWMHWVRQAPGKGLEWVAQIKDKGNAYAAYYAPSVKGRFTISRDDSKNSIYLQMNSLKTEDTAVYYCHYVHYASVSTVLPAFGVDAWGQGTTVTVSS VL: DIVMTQSPLSLPVTPGEPASISCQASQELVHMNRNTYLHWYQQKPGQAPRLLIYKVSNRFPGVPDRFSGSGSGTDFTLKISRVEAEDVGVYYCAQGTSVPFTFGQGTKLEIK
2.1 | dBBDu183H A100R/dBBDu072L (antibody, name in Kabat numbering, V domains shown) VH: QVQLVESGGGLVQPGRSLRLSCAASGFTFSNAWMHWVRQAPGKGLEWVAQIKDKGNAYAAYYAPSVKGRFTISRDDSKNSIYLQMNSLKTEDTAVYYCHYVHYASRSTVLPAFGVDAWGQGTTVTVSS VL: DIVMTQSPLSLPVTPGEPASISCQASQELVHMNRNTYLHWYQQKPGQAPRLLIYKVSNRFPGVPDRFSGSGSGTDFTLKISRVEAEDVGVYYCAQGTSVPFTFGQGTKLEIK
0.9 | dBBDu183H A100T/dBBDu072L (antibody, name in Kabat numbering, V domains shown) VH: QVQLVESGGGLVQPGRSLRLSCAASGFTFSNAWMHWVRQAPGKGLEWVAQIKDKGNAYAAYYAPSVKGRFTISRDDSKNSIYLQMNSLKTEDTAVYYCHYVHYASTSTVLPAFGVDAWGQGTTVTVSS VL: DIVMTQSPLSLPVTPGEPASISCQASQELVHMNRNTYLHWYQQKPGQAPRLLIYKVSNRFPGVPDRFSGSGSGTDFTLKISRVEAEDVGVYYCAQGTSVPFTFGQGTKLEIK
